The values that follow come from the supplement of paper PMC12855868.

B1: library; numbered along this chain (parent)
chain: MAAAGGARLLRAASAVLGGPAGRWLHHAGSRAGSSGLLRNRGPGGSAEASRSLSVSARARSSSEDKITVHFINRDGETLTTKGKVGDSLLDVVVENNLDIDGFGACEGTLACSTCHLIFEDHIYEKLDAITDEENDMLDLAYGLTDRSRLGCQICLTKSMDNMTVRVPETVADARQSIDVGKTS

This data set covers variants of B1. The data set is described as follows: scaled log2 fold change in cell abundance, elesclomol vs control (0 = silent mean, 1 = nonsense mean) (scaled log2 ratio); higher = higher viability under elesclomol (loss of FDX1 cuproptosis function). The settings on record: glucose 10 mM.
[1] abbreviates: with ABC1 FDX1 KO, elesclomol 5 nM, 14 days.
Where [2] appears, read: with HEK293T FDX1 KO, elesclomol 40 nM, 11 days.
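Also: variant abundance is its share of total variant reads in each endpoint sample, from next-generation sequencing of the integrated ORF PCR-amplified out of genomic DNA.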

Turning to MAAAGGARLLRAASAVLGGPAGRWLHHAGSRAGSSGLLRNRGPGGSAEASRSLSVSARARSSSEDKITVHFINRDGETLTTKGKVGDSLLDVVVENNLDIDGFGACEGTLACSTCHLIFEDHIYEKLDAITDEENDMLDLAYGLTDRSRLGCQICLTKSMDNMTVRVPETVAHARQSIDVGKTS, the “scaled log2 fold change” value was 0.000185 under setting [1] and -0.579 under setting [2].

As for MAAAGGARLLRAASAVLGGPAGRWLHHAGSRAGSSGLLRNRGPGGSAEASRSLSVSARARSSSEDKITVHFINRDGETLTTKGKVGDSLLDVVVENNLDIDGFGACEGTLACSTCHLIFEDHIYEKLDAITDEENDMLDLAYGLTDRSRLGCQICLTKSMDNMTVRVPETVAKARQSIDVGKTS, the “scaled log2 fold change” value amounted to 0.645 under setting [1] and 0.0902 under setting [2].

On to MAAAGGARLLRAASAVLGGPAGRWLHHAGSRAGSSGLLRNRGPGGSAEASRSLSVSARARSSSEDKITVHFINRDGETLTTKGKVGDSLLDVVVENNLDIDGFGACEGTLACSTCHLIFEDHIYEKLDAITDEENDMLDLAYGLTDRSRLGCQICLTKSMDNMTVRVPETVARARQSIDVGKTS, for which the “scaled log2 fold change” value by setting is: under setting [1], 0.198; under setting [2], 0.613.

As to MAAAGGARLLRAASAVLGGPAGRWLHHAGSRAGSSGLLRNRGPGGSAEASRSLSVSARARSSSEDKITVHFINRDGETLTTKGKVGDSLLDVVVENNLDIDGFGACEGTLACSTCHLIFEDHIYEKLDAITDEENDMLDLAYGLTDRSRLGCQICLTKSMDNMTVRVPETVAYARQSIDVGKTS, the “scaled log2 fold change” value reads like this: under setting [1], 0.241; under setting [2], -0.0391.

As for MAAAGGARLLRAASAVLGGPAGRWLHHAGSRAGSSGLLRNRGPGGSAEASRSLSVSARARSSSEDKITVHFINRDGETLTTKGKVGDSLLDVVVENNLDIDGFGACEGTLACSTCHLIFEDHIYEKLDAITDEENDMLDLAYGLTDRSRLGCQICLTKSMDNMTVRVPETVASARQSIDVGKTS, the “scaled log2 fold change” value under setting [1] was found to be 0.248 and the “scaled log2 fold change” value under setting [2] is -0.827.

For MAAAGGARLLRAASAVLGGPAGRWLHHAGSRAGSSGLLRNRGPGGSAEASRSLSVSARARSSSEDKITVHFINRDGETLTTKGKVGDSLLDVVVENNLDIDGFGACEGTLACSTCHLIFEDHIYEKLDAITDEENDMLDLAYGLTDRSRLGCQICLTKSMDNMTVRVPETVALARQSIDVGKTS, the “scaled log2 fold change” value was -0.299 under setting [1] and 0.205 under setting [2].

As for MAAAGGARLLRAASAVLGGPAGRWLHHAGSRAGSSGLLRNRGPGGSAEASRSLSVSARARSSSEDKITVHFINRDGETLTTKGKVGDSLLDVVVENNLDIDGFGACEGTLACSTCHLIFEDHIYEKLDAITDEENDMLDLAYGLTDRSRLGCQICLTKSMDNMTVRVPETVAPARQSIDVGKTS, the “scaled log2 fold change” value under setting [1] turned out to be 0.0487 and the “scaled log2 fold change” value under setting [2] worked out at 0.601.

In the case of MAAAGGARLLRAASAVLGGPAGRWLHHAGSRAGSSGLLRNRGPGGSAEASRSLSVSARARSSSEDKITVHFINRDGETLTTKGKVGDSLLDVVVENNLDIDGFGACEGTLACSTCHLIFEDHIYEKLDAITDEENDMLDLAYGLTDRSRLGCQICLTKSMDNMTVRVPETVAWARQSIDVGKTS, the “scaled log2 fold change” value under setting [1] is -0.0293.

Consider MAAAGGARLLRAASAVLGGPAGRWLHHAGSRAGSSGLLRNRGPGGSAEASRSLSVSARARSSSEDKITVHFINRDGETLTTKGKVGDSLLDVVVENNLDIDGFGACEGTLACSTCHLIFEDHIYEKLDAITDEENDMLDLAYGLTDRSRLGCQICLTKSMDNMTVRVPETVATARQSIDVGKTS, for which the “scaled log2 fold change” value under setting [1] was -0.0187.

Consider MAAAGGARLLRAASAVLGGPAGRWLHHAGSRAGSSGLLRNRGPGGSAEASRSLSVSARARSSSEDKITVHFINRDGETLTTKGKVGDSLLDVVVENNLDIDGFGACEGTLACSTCHLIFEDHIYEKLDAITDEENDMLDLAYGLTDRSRLGCQICLTKSMDNMTVRVPETVAQARQSIDVGKTS, for which the “scaled log2 fold change” value runs as follows: under setting [1], 0.224; under setting [2], 0.251.

Regarding MAAAGGARLLRAASAVLGGPAGRWLHHAGSRAGSSGLLRNRGPGGSAEASRSLSVSARARSSSEDKITVHFINRDGETLTTKGKVGDSLLDVVVENNLDIDGFGACEGTLACSTCHLIFEDHIYEKLDAITDEENDMLDLAYGLTDRSRLGCQICLTKSMDNMTVRVPETVAVARQSIDVGKTS, the “scaled log2 fold change” value was 0.418 under setting [1] and -0.196 under setting [2].

Take MAAAGGARLLRAASAVLGGPAGRWLHHAGSRAGSSGLLRNRGPGGSAEASRSLSVSARARSSSEDKITVHFINRDGETLTTKGKVGDSLLDVVVENNLDIDGFGACEGTLACSTCHLIFEDHIYEKLDAITDEENDMLDLAYGLTDRSRLGCQICLTKSMDNMTVRVPETVAFARQSIDVGKTS: the “scaled log2 fold change” value under setting [1] amounted to 0.306 and the “scaled log2 fold change” value under setting [2] is -0.0815.

With MAAAGGARLLRAASAVLGGPAGRWLHHAGSRAGSSGLLRNRGPGGSAEASRSLSVSARARSSSEDKITVHFINRDGETLTTKGKVGDSLLDVVVENNLDIDGFGACEGTLACSTCHLIFEDHIYEKLDAITDEENDMLDLAYGLTDRSRLGCQICLTKSMDNMTVRVPETVANARQSIDVGKTS, the “scaled log2 fold change” value under setting [1] was determined as 0.304 and the “scaled log2 fold change” value under setting [2] is -0.47.

MAAAGGARLLRAASAVLGGPAGRWLHHAGSRAGSSGLLRNRGPGGSAEASRSLSVSARARSSSEDKITVHFINRDGETLTTKGKVGDSLLDVVVENNLDIDGFGACEGTLACSTCHLIFEDHIYEKLDAITDEENDMLDLAYGLTDRSRLGCQICLTKSMDNMTVRVPETVAGARQSIDVGKTS: the “scaled log2 fold change” value was 0.473 under setting [1] and -0.138 under setting [2].

Consider MAAAGGARLLRAASAVLGGPAGRWLHHAGSRAGSSGLLRNRGPGGSAEASRSLSVSARARSSSEDKITVHFINRDGETLTTKGKVGDSLLDVVVENNLDIDGFGACEGTLACSTCHLIFEDHIYEKLDAITDEENDMLDLAYGLTDRSRLGCQICLTKSMDNMTVRVPETVAMARQSIDVGKTS, for which the “scaled log2 fold change” value is, setting by setting: under setting [1], -0.417; under setting [2], 0.0547.

On to MAAAGGARLLRAASAVLGGPAGRWLHHAGSRAGSSGLLRNRGPGGSAEASRSLSVSARARSSSEDKITVHFINRDGETLTTKGKVGDSLLDVVVENNLDIDGFGACEGTLACSTCHLIFEDHIYEKLDAITDEENDMLDLAYGLTDRSRLGCQICLTKSMDNMTVRVPETVAEARQSIDVGKTS, for which the “scaled log2 fold change” value was 0.188 under setting [1] and 1.27 under setting [2].

Consider MAAAGGARLLRAASAVLGGPAGRWLHHAGSRAGSSGLLRNRGPGGSAEASRSLSVSARARSSSEDKITVHFINRDGETLTTKGKVGDSLLDVVVENNLDIDGFGACEGTLACSTCHLIFEDHIYEKLDAITDEENDMLDLAYGLTDRSRLGCQICLTKSMDNMTVRVPETVADCRQSIDVGKTS, for which, under setting [1], the “scaled log2 fold change” value is -0.397.

Take MAAAGGARLLRAASAVLGGPAGRWLHHAGSRAGSSGLLRNRGPGGSAEASRSLSVSARARSSSEDKITVHFINRDGETLTTKGKVGDSLLDVVVENNLDIDGFGACEGTLACSTCHLIFEDHIYEKLDAITDEENDMLDLAYGLTDRSRLGCQICLTKSMDNMTVRVPETVADDRQSIDVGKTS: the “scaled log2 fold change” value is, setting by setting: under setting [1], -0.995; under setting [2], 0.361.
